According to patent publication US20200157537, “Modulating RNA Interactions with Polycomb Repressive Complex 1 (PRC1)” (The General Hospital Corporation, published 2020):

Tests used:
GFP (control protein) = GFP (control protein) (UniProt P42212 P42212:1-238); experiment: EMSA; control protein; settings: tags: Flag; label: radiolabelled
Procedure: (§1) RNA-EMSA assays with CBX7 protein were performed as follows. Labeled RNAs were produced with MEGAscript® T7 Transcription Kit (Life Technologies) and purified from 6% acrylamide TBE-urea gels. Labeled RNAs were prefolded in buffer TE+300 mM NaCl by incubating for 2 min at 95° C., followed by 20 min incubation on ice. Binding reactions were assembled with 20 μl of binding mix (13 mM Tris pH 8.0, 0.2 mM EDTA, 68.8 mM NaCl, 20% Glycerol, 0.2 mg/ml Yeast tRNA, 4 mM DTT, 4 μl 2500 cpm/μl RNA probe). LNA oligonucleotides were added to binding mix at final concentration of 8 μM and samples were pre-incubated on ice for 10 min. After pre-incubation, binding mix samples were combined with 60 μl of purified protein in dialysis buffer (50 mM Tris pH 7.4, 5 mM MgCl₂, 50 mM NaCl, 1 mM DTT, 10% Glycerol, 4 u/μl Protector RNAse inhibitor (Roche)). Control experiments were performed with dialysis buffer only or control proteins—Flag-GFP or GST-Flag-HA, dissolved in dialysis buffer at the highest protein concentration in the particular experiment. After 30 min on ice, the sample was loaded onto a 5% 37:1 acrylamide (Bio-Rad) gel in 0.5× TBE buffer (45 mM Tris-Borate, 1 mM disodium EDTA) and run for 90 min at 250 V at 4° C. Gels were exposed to phosphorimager screens. For validation of motif sequences, labeled RNA probes were produced with MEGAshortscript™ T7 Transcription Kit (Life Technologies) and gel purified using 15% TBE-urea gels (Life technologies) Similar RNA-EMSA conditions were applied except 8% 37:1 acrylamide (Bio-Rad) gels replaced 5% gels.

CBX7 [1] = molecular target: T1, CBX7 (Mus musculus, UniProt Q8VDS3 Q8VDS3:1-158); experiment: EMSA; low micromolar range, value only in figure; positive cooperativity; yeast tRNA, Mg2+, on ice; settings: tags: C-terminal Flag-HA; baculovirus Sf9, anti-FLAG M2 purified; label: radiolabelled
Procedure: as §1, with “For validation of motif sequences, labeled RNA probes were produced with MEGAshortscript™ T7 Transcription Kit (Life Technologies) and gel purified using 15% TBE-urea gels (Life technologies) Similar RNA-EMSA conditions were applied except 8% 37:1 acrylamide (Bio-Rad) gels replaced 5% gels.” left out

CBX7 [2] = molecular target: T1, CBX7; experiment: EMSA; low micromolar range, value only in figure; Hill coefficient suggests cooperativity, 2-3 sites; yeast tRNA, Mg2+, on ice; competed by cold Dcaf12l1; settings: tags: C-terminal Flag-HA; baculovirus Sf9, anti-FLAG M2 purified; label: radiolabelled
Procedure: as §1, with “For validation of motif sequences, labeled RNA probes were produced with MEGAshortscript™ T7 Transcription Kit (Life Technologies) and gel purified using 15% TBE-urea gels (Life technologies) Similar RNA-EMSA conditions were applied except 8% 37:1 acrylamide (Bio-Rad) gels replaced 5% gels.” left out

T1 sequence (Q8VDS3 whole entry, one chain of several): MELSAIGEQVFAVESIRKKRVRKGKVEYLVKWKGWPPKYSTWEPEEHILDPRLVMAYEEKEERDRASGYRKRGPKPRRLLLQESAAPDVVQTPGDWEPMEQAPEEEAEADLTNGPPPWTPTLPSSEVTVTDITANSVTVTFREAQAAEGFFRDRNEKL

Binder | binding result (GFP (control protein)) | binding result (CBX7 [1]) | binding result (CBX7 [2])
Calm2 3'UTR EMSA probe (ssRNA) RNA: GUAGCUUUUAGGAACUGUCAGCAUGUUGUUGUUGAAGUGUGGAGCUGUAACUCUGCGUGGACUGUGGACAGUCAACAAUAUGUACUUAAAAGUUGCACUAUUGCAA | no binding | binds | –
Dusp9 3'UTR EMSA probe (ssRNA) RNA: GGCCACUUUGACUCGUGUAGACUCCUUCCUGCUUCUCUCACUAGGGCUUAGACUUCUUGGAACUGUAGGGUGUGAACCCAGAGAC | no binding | binds | –
Dcaf12l1 3'UTR EMSA probe (ssRNA) RNA: UCAAAUAGAGGAGCUGGGGAUUAAAAAGAUAGGUCUGAUUAAAGGACUGUGCAGUUCAGAUAAAUAGAGAUAAUGGGAUGCCGUGCGGAUAGAUUGGUUUUCUCC | no binding | – | binds
